Data reported in patent US20160032292, “Aptamer-Guided Gene Targeting” (Georgia Tech Research Corporation, published 2016).

Legend:
[1] = molecular target: T1, I-SceI homing endonuclease (expressed in yeast from GAL1-10 promoter) (UniProt P03882 P03882:1-235); experiment: cell_activity; gene correction over P1-r-P2.TRP5.40; I-SceI induced before transformation
T1 sequence: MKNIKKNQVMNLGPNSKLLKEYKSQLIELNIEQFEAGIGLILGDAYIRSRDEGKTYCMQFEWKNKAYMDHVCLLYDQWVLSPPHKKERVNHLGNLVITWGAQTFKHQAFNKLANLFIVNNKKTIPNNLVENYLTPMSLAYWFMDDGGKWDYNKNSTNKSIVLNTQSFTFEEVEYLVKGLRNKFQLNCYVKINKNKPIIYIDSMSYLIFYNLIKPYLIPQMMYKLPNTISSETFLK
Method: Briefly, 50 ml of yeast extract-peptone-lactic acid (YPLac) (lactic acid 2%), pH 5.8, or yeast extract-peptone-dextrose (YPD) liquid culture was inoculated about 24 h before transformation and incubated with vigorous shaking at 30° C. YPLac was used as a neutral carbon source so as not to induce I-SceI expression until plating the transformations to selective galactose-containing media. YPD was used to repress I-SceI expression until plating the transformations to selective glucose-containing media. Transformations were done with 1 nmol of total oligonucleotide DNA, with the exception of the PAGE-purified oligonucleotides in which transformations were done with 500 pmol of total oligonucleotide DNA. For the transformations testing to determine whether the aptamer was working in trans, two oligonucleotides were used, 500 pmol of each oligonucleotide, such that the combined total oligonucleotide DNA used was 1 nmol. Sequences of oligonucleotides used for repair can be found in Table 1. Cells from each transformation were diluted appropriately and plated to synthetic complete medium lacking the respective amino acid and containing 2% galactose for I-SceI induction, 2 or 0.2% galactose for HO induction or 2% glucose for I-SceI or HO repression. […] Viability after transformation was calculated by plating to glucose-containing synthetic complete medium. […]

[2] = molecular target: T2, I-SceI homing endonuclease (expressed in HEK-293 from pSce) (UniProt P03882 P03882:1-235); experiment: cell_activity; RFP+ over C.Red.30, hand counts (4-fold by flow cytometry)
T2 sequence: T1 sequence
Method: (§1) Protocols, 1:1412-1428 (2006)) 24 h before transfection. For transfections in HEK-293 cells, the plasmid DNA was used in the amount of 0.5 μg for the expression vector, as well as 0.5 μg for the targeted vector, and the repairing DNA oligonucleotide used was 1 μg, unless otherwise indicated. For the transfections with I-SceI digested pLDSLm, 0.5 m g of the linearized pLDSLm vector was used with 1 m g of repairing DNA oligonucleotide. Digestion of the pLDSLm vector was done using I-SceI (New England Biolabs, Ipswich, Mass., USA). Ten micrograms of plasmid pLDSLm was digested using 15 U I-SceI, 250 ng bovine serum albumin (BSA), 10×I-SceI buffer (New England Biolabs, Ipswich, Mass., USA) and water to a final volume of 50 μl. Digestions were done overnight at 37° C. In all transfection experiments, the oligonucleotides and the plasmid were diluted in DMEM without supplements, and then PEI was added, the solution was vortexed and added to the wells 10-15 min later. Red fluorescent cells were visualized by fluorescent microscopy using a Zeiss Observer A1 microscope and an AxioCam MRm camera (Zeiss, Thornwood, N.Y., USA). […] For certain transfections, wells of 24-well plates were seeded with 150,000 cells (on the day before transfection) and 5-8 days after transfection individual fluorescent cells per well were counted using a fluorescence microscope just before flow cytometry analysis. […]

[3] = molecular target: T2, I-SceI homing endonuclease (expressed …); experiment: cell_activity; RFP+ over C.Red.40, flow cytometry
Method: as §1

B1: P1-A7-P2.TRP5.40 (ssDNA)
DNA: CTTCTGCCCGCCTCCTTCCGCGGGCGCTGTTGACAGCGGTCAGGTGGATGGGATGGACGAGATAGGCGGACACTGGTTTTGATGAAGCTGTCGCGGATCCCACATTCTGGGAAG
Binder B1 has an activity [1] of 1.25 fold.

B2: A7.Red.30 (ssDNA)
DNA: GCGGGCGCTGTTGACAGCGGTCAGGTGGATGGGATGCAGGACTCCTCCCTGCAGGACGGCTGCTTC
Binder B2 has an activity [2] of 16 fold.

B3: A7.Red.40 (ssDNA)
DNA: GCGGGCGCTGTTGACAGCGGTCAGGTGGATGGGATGTGACCCAGGACTCCTCCCTGCAGGACGGCTGCTTCATCTA
B3 gave an activity [3] of 6 fold.
